Results: patent US12104181B2, “Compositions and methods for treating viral infections targeting TRIM7” (THE BOARD OF REGENTS OF THE UNIVERSITY OF TEXAS SYSTEM, priority 2021, dated 2024)

B1: TRIM29: human RING type E3 ligase expressed from lentiviral vector (protein, UniProt Q14134 1-588, looked up)
Tripartite motif-containing …: MEAADASRSNGSSPEARDARSPSGPSGSLENGTKADGKDAKTTNGHGGEAAEGKSLGSALKPGEGRSALFAGNEWRRPIIQFVESGDDKNSNYFSMDSMEGKRSPYAGLQLGAAKKPPVTFAEKGELRKSIFSESRKPTVSIMEPGETRRNSYPRADTGLFSRSKSGSEEVLCDSCIGNKQKAVKSCLVCQASFCELHLKPHLEGAAFRDHQLLEPIRDFEARKCPVHGKTMELFCQTDQTCICYLCMFQEHKNHSTVTVEEAKAEKETELSLQKEQLQLKIIEIEDEAEKWQKEKDRIKSFTTNEKAILEQNFRDLVRDLEKQKEEVRAALEQREQDAVDQVKVIMDALDERAKVLHEDKQTREQLHSISDSVLFLQEFGALMSNYSLPPPLPTYHVLLEGEGLGQSLGNFKDDLLNVCMRHVEKMCKADLSRNFIERNHMENGGDHRYVNNYTNSFGGEWSAPDTMKRYSMYLTPKGGVRTSYQPSSPGRFTKETTQKNFNNLYGTKGNYTSRVWEYSSSIQNSDNDLPVVQGSSSFSLKGYPSLMRSQSPKAQPQTWKSGKQTMLSHYRPFYVNKGNGIGSNEAP
modifications: lentiviral expression
notes: human RING type E3 ligase expressed from lentiviral vector
B2: TRIM27: human RING type E3 ligase expressed from lentiviral vector (protein, UniProt P14373 1-513, looked up)
Zinc finger protein RFP: MASGSVAECLQQETTCPVCLQYFAEPMMLDCGHNICCACLARCWGTAETNVSCPQCRETFPQRHMRPNRHLANVTQLVKQLRTERPSGPGGEMGVCEKHREPLKLYCEEDQMPICVVCDRSREHRGHSVLPLEEAVEGFKEQIQNQLDHLKRVKDLKKRRRAQGEQARAELLSLTQMEREKIVWEFEQLYHSLKEHEYRLLARLEELDLAIYNSINGAITQFSCNISHLSSLIAQLEEKQQQPTRELLQDIGDTLSRAERIRIPEPWITPPDLQEKIHIFAQKCLFLTESLKQFTEKMQSDMEKIQELREAQLYSVDVTLDPDTAYPSLILSDNLRQVRYSYLQQDLPDNPERFNLFPCVLGSPCFIAGRHYWEVEVGDKAKWTIGVCEDSVCRKGGVTSAPQNGFWAVSLWYGKEYWALTSPMTALPLRTPLQRVGIFLDYDAGEVSFYNVTERCHTFTFSHATFCGPVRPYFSLSYSGGKSAAPLIICPMSGIDGFSGHVGNHGHSMETSP
modifications: lentiviral expression
notes: as for B1
B3: TRIM23: human RING type E3 ligase expressed from lentiviral vector (protein, UniProt P36406 1-574, looked up)
E3 ubiquitin-protein ligase …: MATLVVNKLGAGVDSGRQGSRGTAVVKVLECGVCEDVFSLQGDKVPRLLLCGHTVCHDCLTRLPLHGRAIRCPFDRQVTDLGDSGVWGLKKNFALLELLERLQNGPIGQYGAAEESIGISGESIIRCDEDEAHLASVYCTVCATHLCSECSQVTHSTKTLAKHRRVPLADKPHEKTMCSQHQVHAIEFVCLEEGCQTSPLMCCVCKEYGKHQGHKHSVLEPEANQIRASILDMAHCIRTFTEEISDYSRKLVGIVQHIEGGEQIVEDGIGMAHTEHVPGTAENARSCIRAYFYDLHETLCRQEEMALSVVDAHVREKLIWLRQQQEDMTILLSEVSAACLHCEKTLQQDDCRVVLAKQEITRLLETLQKQQQQFTEVADHIQLDASIPVTFTKDNRVHIGPKMEIRVVTLGLDGAGKTTILFKLKQDEFMQPIPTIGFNVETVEYKNLKFTIWDVGGKHKLRPLWKHYYLNTQAVVFVVDSSHRDRISEAHSELAKLLTEKELRDALLLIFANKQDVAGALSVEEITELLSLHKLCCGRSWYIQGCDARSGMGLYEGLDWLSRQLVAAGVLDVA
B4: RLIM: human RING type E3 ligase expressed from lentiviral vector (protein, UniProt Q9NVW2 1-624, looked up)
E3 ubiquitin-protein ligase …: MENSDSNDKGSGDQSAAQRRSQMDRLDREEAFYQFVNNLSEEDYRLMRDNNLLGTPGESTEEELLRRLQQIKEGPPPQNSDENRGGDSSDDVSNGDSIIDWLNSVRQTGNTTRSGQRGNQSWRAVSRTNPNSGDFRFSLEINVNRNNGSQNSENENEPSARRSSGENVENNSQRQVENPRSESTSARPSRSERNSTEALTEVPPTRGQRRARSRSPDHRRTRARAERSRSPLHPMSEIPRRSHHSISSQTFEHPLVNETEGSSRTRHHVTLRQQISGPELLSRGLFAASGTRNASQGAGSSDTAASGESTGSGQRPPTIVLDLQVRRVRPGEYRQRDSIASRTRSRSQTPNNTVTYESERGGFRRTFSRSERAGVRTYVSTIRIPIRRILNTGLSETTSVAIQTMLRQIMTGFGELSYFMYSDSDSEPTGSVSNRNMERAESRSGRGGSGGGSSSGSSSSSSSSSSSSSSSSSSSSPSSSSGGESSETSSDLFEGSNEGSSSSGSSGARREGRHRAPVTFDESGSLPFLSLAQFFLLNEDDDDQPRGLTKEQIDNLAMRSFGENDALKTCSVCITEYTEGNKLRKLPCSHEYHVHCIDRWLSENSTCPICRRAVLASGNRESVV
B5: TRIM26: human RING type E3 ligase expressed from lentiviral vector (protein, UniProt Q12899 1-539, looked up)
Tripartite motif-containing …: MATSAPLRSLEEEVTCSICLDYLRDPVTIDCGHVFCRSCTTDVRPISGSRPVCPLCKKPFKKENIRPVWQLASLVENIERLKVDKGRQPGEVTREQQDAKLCERHREKLHYYCEDDGKLLCVMCRESREHRPHTAVLMEKAAQPHREKILNHLSTLRRDRDKIQGFQAKGEADILAALKKLQDQRQYIVAEFEQGHQFLREREEHLLEQLAKLEQELTEGREKFKSRGVGELARLALVISELEGKAQQPAAELMQDTRDFLNRYPRKKFWVGKPIARVVKKKTGEFSDKLLSLQRGLREFQGKLLRDLEYKTVSVTLDPQSASGYLQLSEDWKCVTYTSLYKSAYLHPQQFDCEPGVLGSKGFTWGKVYWEVEVEREGWSEDEEEGDEEEEGEEEEEEEEAGYGDGYDDWETDEDEESLGDEEEEEEEEEEEVLESCMVGVARDSVKRKGDLSLRPEDGVWALRLSSSGIWANTSPEAELFPALRPRRVGIALDYEGGTVTFTNAESQELIYTFTATFTRRLVPFLWLKWPGTRLLLRP
modifications: lentiviral expression
notes: as for B1
B6: TRIM24: human RING type E3 ligase expressed from lentiviral vector (protein, UniProt O15164 1-1050, looked up)
Transcription intermediary …: MEVAVEKAVAAAAAASAAASGGPSAAPSGENEAESRQGPDSERGGEAARLNLLDTCAVCHQNIQSRAPKLLPCLHSFCQRCLPAPQRYLMLPAPMLGSAETPPPVPAPGSPVSGSSPFATQVGVIRCPVCSQECAERHIIDNFFVKDTTEVPSSTVEKSNQVCTSCEDNAEANGFCVECVEWLCKTCIRAHQRVKFTKDHTVRQKEEVSPEAVGVTSQRPVFCPFHKKEQLKLYCETCDKLTCRDCQLLEHKEHRYQFIEEAFQNQKVIIDTLITKLMEKTKYIKFTGNQIQNRIIEVNQNQKQVEQDIKVAIFTLMVEINKKGKALLHQLESLAKDHRMKLMQQQQEVAGLSKQLEHVMHFSKWAVSSGSSTALLYSKRLITYRLRHLLRARCDASPVTNNTIQFHCDPSFWAQNIINLGSLVIEDKESQPQMPKQNPVVEQNSQPPSGLSSNQLSKFPTQISLAQLRLQHMQQQVMAQRQQVQRRPAPVGLPNPRMQGPIQQPSISHQQPPPRLINFQNHSPKPNGPVLPPHPQQLRYPPNQNIPRQAIKPNPLQMAFLAQQAIKQWQISSGQGTPSTTNSTSSTPSSPTITSAAGYDGKAFGSPMIDLSSPVGGSYNLPSLPDIDCSSTIMLDNIVRKDTNIDHGQPRPPSNRTVQSPNSSVPSPGLAGPVTMTSVHPPIRSPSASSVGSRGSSGSSSKPAGADSTHKVPVVMLEPIRIKQENSGPPENYDFPVVIVKQESDEESRPQNANYPRSILTSLLLNSSQSSTSEETVLRSDAPDSTGDQPGLHQDNSSNGKSEWLDPSQKSPLHVGETRKEDDPNEDWCAVCQNGGELLCCEKCPKVFHLSCHVPTLTNFPSGEWICTFCRDLSKPEVEYDCDAPSHNSEKKKTEGLVKLTPIDKRKCERLLLFLYCHEMSLAFQDPVPLTVPDYYKIIKNPMDLSTIKKRLQEDYSMYSKPEDFVADFRLIFQNCAEFNEPDSEVANAGIKLENYFEELLKNLYPEKRFPKPEFRNESEDNKFSDDSDDDFVQPRKKRLKSIEERQLLK
B7: TRIM22: human RING type E3 ligase expressed from lentiviral vector (protein, UniProt Q8IYM9 1-498, looked up)
E3 ubiquitin-protein ligase …: MDFSVKVDIEKEVTCPICLELLTEPLSLDCGHSFCQACITAKIKESVIISRGESSCPVCQTRFQPGNLRPNRHLANIVERVKEVKMSPQEGQKRDVCEHHGKKLQIFCKEDGKVICWVCELSQEHQGHQTFRINEVVKECQEKLQVALQRLIKEDQEAEKLEDDIRQERTAWKNYIQIERQKILKGFNEMRVILDNEEQRELQKLEEGEVNVLDNLAAATDQLVQQRQDASTLISDLQRRLRGSSVEMLQDVIDVMKRSESWTLKKPKSVSKKLKSVFRVPDLSGMLQVLKELTDVQYYWVDVMLNPGSATSNVAISVDQRQVKTVRTCTFKNSNPCDFSAFGVFGCQYFSSGKYYWEVDVSGKIAWILGVHSKISSLNKRKSSGFAFDPSVNYSKVYSRYRPQYGYWVIGLQNTCEYNAFEDSSSSDPKVLTLFMAVPPCRIGVFLDYEAGIVSFFNVTNHGALIYKFSGCRFSRPAYPYFNPWNCLVPMTVCPPSS
B8: TRIM32: human RING type E3 ligase expressed from lentiviral vector (protein, UniProt Q13049 2-653, looked up)
E3 ubiquitin-protein ligase …: AAAAASHLNLDALREVLECPICMESFTEEQLRPKLLHCGHTICRQCLEKLLASSINGVRCPFCSKITRITSLTQLTDNLTVLKIIDTAGLSEAVGLLMCRSCGRRLPRQFCRSCGLVLCEPCREADHQPPGHCTLPVKEAAEERRRDFGEKLTRLRELMGELQRRKAALEGVSKDLQARYKAVLQEYGHEERRVQDELARSRKFFTGSLAEVEKSNSQVVEEQSYLLNIAEVQAVSRCDYFLAKIKQADVALLEETADEEEPELTASLPRELTLQDVELLKVGHVGPLQIGQAVKKPRTVNVEDSWAMEATASAASTSVTFREMDMSPEEVVASPRASPAKQRGPEAASNIQQCLFLKKMGAKGSTPGMFNLPVSLYVTSQGEVLVADRGNYRIQVFTRKGFLKEIRRSPSGIDSFVLSFLGADLPNLTPLSVAMNCQGLIGVTDSYDNSLKVYTLDGHCVACHRSQLSKPWGITALPSGQFVVTDVEGGKLWCFTVDRGSGVVKYSCLCSAVRPKFVTCDAEGTVYFTQGLGLNLENRQNEHHLEGGFSIGSVGPDGQLGRQISHFFSENEDFRCIAGMCVDARGDLIVADSSRKEILHFPKGGGYSVLIREGLTCPVGIALTPKGQLLVLDCWDHCIKIYSYHLRRYSTP

The molecules below were run on coxsackievirus B3 (CVB3-GFP). Conditions: HeLa cells, GFP-positive cells within RFP-positive gate, replicate R1.
Type: cell-based

Point of comparison: B5, “Percent Infected R1” value 49.3%. Against it:
- B1 — higher, 68%
- B2 — higher, 60.7%
- B3 — higher, 61.5%
- B4 — higher, 82%
- B6 — higher, 69.5%
- B7 — higher, 49.4%
- B8 — higher, 58.4%

Same assay, conditions: HeLa cells, replicate R1

Point of comparison: B4, “Z score R1” value −0.08. Against it:
- B1 — lower, −0.262
- B2 — lower, −0.355
- B3 — lower, −0.345
- B5 — lower, −0.5
- B6 — lower, −0.243
- B7 — lower, −0.499
- B8 — lower, −0.384
